Experimental findings from publication PMC3197789 are described below.

Data set [1] has as its system 7HC-STAT3beta, Src-phosphorylated (pY705). Put plainly: EMSA with unlabelled hSIE competition. The note with it: not given in the material (Supporting Information not held).
Data set [2] concerns wt STAT3beta, Src-phosphorylated (pY705). In words: EMSA with unlabelled hSIE competition. The conditions noted are these: not given in the material (Supporting Information not held).

“hSIE (high-affinity sis-inducible element) probe”: the results for the Kd in data set [1] and in data set [2] were 6.8 nM and 6.3 nM, respectively.
